Changes are numbered by the printed parent chain. In names and notes the source's numbering stands.

Assay [1] concerns the target T1, mature myostatin (human, murine, rat, chicken, turkey, …, UniProt O08689 268-376 (mouse entry)).
T1 sequence: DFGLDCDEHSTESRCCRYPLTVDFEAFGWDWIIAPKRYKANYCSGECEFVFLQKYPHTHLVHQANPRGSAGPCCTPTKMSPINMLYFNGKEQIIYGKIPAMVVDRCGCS
In words: cell-based or functional assay.

The target of assay [2] is T1, mature myostatin. In words: ELISA on plate-coated myostatin, periprep Fab in serial dilution, detection with goat anti-human-kappa-AP, O.D. against Fab concentration (ng/ml). As for the experimental part:
ELISA plates are coated with myostatin diluted to 4 ug/ml in carbonate buffer (50 mM NaHCO₃ pH 8.3) and 50 μL added per well. Plates are covered with sealing tape and incubate overnight at 4° C. Thereafter, plates (Greiner U-bottom plates Cat #650061) are washed three times with PBS-T (0.1% Tween-20) using an automatic plate washer. 200 μL of blocking buffer (PBS+1% BSA+0.1% Tween-20) is added to every well and incubated at room temperature for one hour. Plates are washed and 50 μl of sample added per well. Samples are composed of periprep Fabs diluted in PBST/BSA starting at a 1:3 dilution and then serially diluted in half-log steps. Plates are washed and 50 μL of secondary antibody solution (1:2000 goat anti-human-kappa-AP Southern Biotech Cat # 2060-04 in PBST/BSA) is added to every well. Following an additional wash step, 100 μL of AP substrate is added per well and incubates at room temperature for about 10 minutes. The absorbance or OD at 560 nm is read. C12 or 510C2 is included on each ELISA plate as an affinity reference standard. The concentration of Fabs is determined by a quantitative ELISA using an anti-Fd antibody (Sheep anti-Fd Biodesign) to capture protein and goat anti-human-kappa-AP (Southern Biotech) to detect. A purified Fab standard is run on each plate to generate a standard curve for the concentration determinations.
On the technique in general: ELISA stands for enzyme-linked immunosorbent assay.

B1: C12-N93H (antibody, human IgG4 S228P, kappa, V domains shown)
VH: QLQLQESGPGLVKPSETLSLTCTVSGFSLRKVGSSVSWIRQPPGKGLEWIGHIYWDDDKRLNPSLRNRVTISVDTSKNQFSLKLSSVTAADTAVYYCARRAITTVIGGGTFDLWGQGTLVTVSS
VL: DIQMTQSPSSLSASVGDRVTITCSASSSISYMHWYQQKPGKAPKLLIYDTSKLARGVPSRFSGSGSGTDFTLTISSLQPEDFATYYCQQWYLHPLTFGGGTKVEIKR
In the case of B1, the “IC50 in the myostatin/SBE reporter assay (luciferase, HEK293 EBNA cells)” value in assay [1] is roughly 7.03 nM.

B2: C12 Fab with the Asn residue in CDRL3 replaced with R (Fab, V domains shown)
VH: B1 VH
VL: B1 VL with H93R
notes: Periprep Fab
For the molecule B2, the binding result in assay [2] is recorded as “binds”.

The values above are taken from patent US20100166764A1 (Eli Lilly, published 2010).
